Measurements taken from publication PMC4436829.
Where two headings read alike, the source gives them in different places.

Columns and labels:
[1] = target: S8,15,44,55D NDC80 "Bonsai"-GFP complex; experiment: FRAP
[2] = target: Taxol-stabilized microtubules (polymerized cow brain tubulin) (cow) (UniProt Q2HJ86); experiment: FRAP
[3] = target: S8,15,44,55D NDC80 "Bonsai"-GFP complex; experiment: TIRF-based MT-binding assay
[4] = target: Taxol-stabilized microtubules (polymerized cow brain tubulin) (cow) (UniProt Q2HJ86); experiment: TIRF-based MT-binding assay
[5] = target: S15D NDC80 "Bonsai"-GFP complex; experiment: TIRF-based MT-binding assay
[6] = target: S15D NDC80 "Bonsai"-GFP complex; experiment: TIRF-based MT-binding assay; remark: listed apart in the source
[7] = target: noD NDC80 "Bonsai"-GFP complex (wild-type Hec1 tail); experiment: FRAP
[8] = target: Taxol-stabilized microtubules (polymerized cow brain tubulin) (cow) (UniProt Q2HJ86); experiment: single-molecule TIRF microscopy
[9] = target: noD NDC80 "Bonsai"-GFP complex (wild-type Hec1 tail); experiment: TIRF-based MT-binding assay

Sequence of UniProt Q2HJ86 (Q2HJ86 8-447, chain 1 of 2): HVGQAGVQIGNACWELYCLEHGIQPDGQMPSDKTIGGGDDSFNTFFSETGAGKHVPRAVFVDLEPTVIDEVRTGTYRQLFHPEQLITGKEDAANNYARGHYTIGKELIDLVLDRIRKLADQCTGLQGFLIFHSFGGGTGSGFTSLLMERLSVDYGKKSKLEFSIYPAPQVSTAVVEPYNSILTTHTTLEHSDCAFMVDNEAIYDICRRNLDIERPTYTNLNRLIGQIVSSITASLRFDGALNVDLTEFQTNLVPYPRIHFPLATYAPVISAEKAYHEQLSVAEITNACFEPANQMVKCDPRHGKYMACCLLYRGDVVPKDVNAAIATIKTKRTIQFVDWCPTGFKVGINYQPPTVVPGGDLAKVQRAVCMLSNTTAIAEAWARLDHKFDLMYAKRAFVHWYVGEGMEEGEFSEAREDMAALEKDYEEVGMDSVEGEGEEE
Sequence of UniProt Q2HJ86 (Q6B856 1-439, chain 2 of 2, further chain): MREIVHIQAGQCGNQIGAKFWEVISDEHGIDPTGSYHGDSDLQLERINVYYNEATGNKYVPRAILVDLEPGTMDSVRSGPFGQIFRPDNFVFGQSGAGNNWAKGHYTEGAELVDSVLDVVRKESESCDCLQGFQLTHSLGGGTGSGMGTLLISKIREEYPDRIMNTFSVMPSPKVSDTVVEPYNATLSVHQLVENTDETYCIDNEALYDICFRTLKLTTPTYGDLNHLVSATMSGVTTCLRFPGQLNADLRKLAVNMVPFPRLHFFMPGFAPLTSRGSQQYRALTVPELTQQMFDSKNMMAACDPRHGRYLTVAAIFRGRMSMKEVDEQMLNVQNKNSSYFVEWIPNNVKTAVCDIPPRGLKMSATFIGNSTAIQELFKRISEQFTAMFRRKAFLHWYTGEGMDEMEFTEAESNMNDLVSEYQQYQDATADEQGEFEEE

Substance	cooperativity parameter (ω) [1]	FRAP recovery time [2] [s]	cooperativity parameter (ω) [3]	Kd [4] [nM]	stoichiometry N (molecules per tubulin dimer) [4]	cooperativity parameter (ω) [5]	cooperativity parameter (ω) [6]	cooperativity parameter (ω) [7]	Kd [8] [nM]	residency time (τ = 1/koff) [8] [ms]	cooperativity parameter (ω) [9]
S8,15,44,55D NDC80 "Bonsai"-GFP complex	2.4	0.084	2.6	1920	1.9						
S15D NDC80 "Bonsai"-GFP complex				710	1.9	2	3				
noD NDC80 "Bonsai"-GFP complex (wild-type Hec1 tail)		0.29		530	1.9			2	640	417	3.33
